According to PMC5548840, “The FAD synthetase from the human pathogen Streptococcus pneumoniae: a bifunctional enzyme exhibiting activity-dependent redox requirements” (Scientific Reports, 2017):

Columns and labels:
[1] = SEC; 20 uM pure SpnFADS on a calibrated Superdex 200 10/300 GL column, 50 mM Tris/HCl, pH 8.0, 150 mM NaCl; freshly purified fraction considered as monomeric
SpnFADS [2] = biological target: T1, SpnFADS (Streptococcus pneumoniae, UniProt A0A0H2UPY5); assay: isothermal titration calorimetry; format: binding; details: 20 mM PIPES pH 7.0, 20 °C, free enzyme
T1 construct: gene SP_1110; full length (modules 1-186 FMNAT, 187-305 RFK); N-terminal His6-PreScission tag removed; codon-optimised synthetic gene in modified pET-15b, E. coli BL21 Star (DE3); 34,521 Da; mainly monomer
T1 sequence (A0A0H2UPY5 entry or part of it): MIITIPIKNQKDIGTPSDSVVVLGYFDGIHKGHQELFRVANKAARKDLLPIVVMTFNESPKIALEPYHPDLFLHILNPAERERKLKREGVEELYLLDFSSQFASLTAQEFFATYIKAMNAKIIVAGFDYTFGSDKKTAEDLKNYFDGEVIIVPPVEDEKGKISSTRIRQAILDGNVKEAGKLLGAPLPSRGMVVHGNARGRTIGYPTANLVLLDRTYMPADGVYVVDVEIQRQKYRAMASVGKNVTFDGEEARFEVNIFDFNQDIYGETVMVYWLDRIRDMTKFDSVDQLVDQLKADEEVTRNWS
Source text: isothermal titration calorimetry on SpnFADS

[3] = biological target: FAD synthetase from Streptococcus pneumoniae (SpnFADS) (Streptococcus pneumoniae); assay: atomic force microscopy; 0.5 uM SpnFADS on mica, with 250 uM ATP and 50 uM FMN; 20 mM PIPES, pH 6.0, 2 mM DTT, 0.8 mM MgCl2, room temperature
[4] = biological target: FAD synthetase from Streptococcus pneumoniae (SpnFADS) (Streptococcus pneumoniae); assay: atomic force microscopy; 0.5 uM SpnFADS on mica, with 50 uM FAD and 250 uM PPi; 20 mM PIPES, pH 6.0, 2 mM DTT, 0.8 mM MgCl2, room temperature
[5] = biological target: FAD synthetase from Streptococcus pneumoniae (SpnFADS) (Streptococcus pneumoniae); assay: atomic force microscopy; 0.5 uM SpnFADS on mica, with 250 uM ATP; 20 mM PIPES, pH 6.0, 2 mM DTT, 0.8 mM MgCl2, room temperature
[6] = biological target: FAD synthetase from Streptococcus pneumoniae (SpnFADS) (Streptococcus pneumoniae); assay: atomic force microscopy; 0.5 uM SpnFADS on mica, no ligand; 20 mM PIPES, pH 6.0, 2 mM DTT, 0.8 mM MgCl2, room temperature
[7] = biological target: FAD synthetase from Streptococcus pneumoniae (SpnFADS) (Streptococcus pneumoniae); assay: atomic force microscopy; 0.5 uM SpnFADS on mica, with 250 uM ADP; 20 mM PIPES, pH 6.0, 2 mM DTT, 0.8 mM MgCl2, room temperature
[8] = biological target: FAD synthetase from Streptococcus pneumoniae (SpnFADS) (Streptococcus pneumoniae); assay: atomic force microscopy; 0.5 uM SpnFADS on mica, with 250 uM ATP and 50 uM RF; 20 mM PIPES, pH 6.0, 2 mM DTT, 0.8 mM MgCl2, room temperature
[9] = biological target: FAD synthetase from Streptococcus pneumoniae (SpnFADS) (Streptococcus pneumoniae); assay: atomic force microscopy; 0.5 uM SpnFADS on mica, with 250 uM ADP and 50 uM FMN; 20 mM PIPES, pH 6.0, 2 mM DTT, 0.8 mM MgCl2, room temperature
[10] = biological target: FAD synthetase from Streptococcus pneumoniae (SpnFADS) (Streptococcus pneumoniae); assay: cross-linking; pure SpnFADS in 50 mM KHPO4, pH 8.0, with BS3 crosslinker for 2 h at 4 °C, then 15% SDS-PAGE
SpnFADS [11] = biological target: T1, SpnFADS; assay: HPLC of flavin products, steady-state FMNAT activity; format: biochemical; details: 20 mM PIPES pH 7.0, 25 °C
Source text: HPLC of flavin products, steady-state FMNAT activity on SpnFADS

SpnFADS [12] = biological target: T1, SpnFADS; assay: HPLC of flavin products, steady-state RFK activity; format: biochemical; details: saturating ATP (412 μM), 20 mM PIPES pH 7.0, 25 °C, 0.8 mM MgCl2, no dithionite
Source text: HPLC of flavin products, steady-state RFK activity on SpnFADS

[13] = 0.8 mM MgCl2, 4 mM sodium dithionite, 10 mM glucose, 0.5 U/mL glucose oxidase, reduced flavin, single site (FMNAT)

In the case of “FAD synthetase from Streptococcus pneumoniae (SpnFADS)”, the “percent of the protein in the main peak at ~14.5 mL (monomers or dimers)” value [1] is reported as “∼96% of the protein”.
In the case of Nc1ncnc2c1ncn2[C@@H]1O[C@H](COP(=O)(O)OP(=O)(O)O)[C@@H](O)[C@H]1O [ADP], the “K d (μM)” value (SpnFADS [2]; no MgCl2, single site) is reported as 4.1 ± 20% μM.
For Cc1cc2c(cc1C)N(C[C@H](O)[C@H](O)[C@H](O)COP(=O)(O)OP(=O)(O)OC[C@H]1O[C@@H](n3cnc4c(N)ncnc43)[C@H](O)[C@@H]1O)c1[nH]c(=O)[nH]c(=O)c1N2 [reduced FAD], the “K d (μM)” value (SpnFADS [2]; [13]) was 12.5 ± 20% μM.
Compound “FAD synthetase from Streptococcus pneumoniae (SpnFADS) (enzyme)” has a % of features that are dimers [3] of 7%, a % of features that are monomers [3] of 73% and a % of features that are trimers [3] of 20%. It also gave a % of molecules in dimers [3] of 9%, a % of molecules in monomers [3] of 50% and a % of molecules in trimers [3] of 41%. It also gave a % of features that are dimers [4] of 7%, a % of features that are monomers [4] of 73% and a % of features that are trimers [4] of 20%. It also gave a % of molecules in dimers [4] of 9%, a % of molecules in monomers [4] of 50% and a % of molecules in trimers [4] of 41%. For the same compound, the % of features that are dimers [5] was 12%, the % of features that are monomers [5] was 70% and the % of features that are trimers [5] was 18%. For the same compound, the % of molecules in dimers [5] was 16%, the % of molecules in monomers [5] was 47% and the % of molecules in trimers [5] was 37%. It also gave a % of features that are dimers [6] of 3%, a % of features that are monomers [6] of 97% and a % of molecules in dimers [6] of 6%. It also gave a % of molecules in monomers [6] of 94%, a % of features that are dimers [7] of 7% and a % of features that are monomers [7] of 60%. It also gave a % of features that are tetramers [7] of 20%, a % of features that are trimers [7] of 13% and a % of molecules in dimers [7] of 7%. For the same compound, the % of molecules in monomers [7] was 31%, the % of molecules in tetramers [7] was 47% and the % of molecules in trimers [7] was 20%. For the same compound, the % of features that are dimers [8] was 20%, the % of features that are monomers [8] was 73% and the % of features that are trimers [8] was 7%. The % of molecules in dimers [8] was 30%, the % of molecules in monomers [8] was 54% and the % of molecules in trimers [8] was 16%. For the same compound, the % of features that are dimers [9] was 15%, the % of features that are monomers [9] was 63% and the % of features that are trimers [9] was 22%. For the same compound, the % of molecules in dimers [9] was 19%, the % of molecules in monomers [9] was 40% and the % of molecules in trimers [9] was 41%. It also gave a stoichiometry N [10] of 2.
With Cc1cc2c(cc1C)N(C[C@H](O)[C@H](O)[C@H](O)COP(=O)(O)O)c1[nH]c(=O)[nH]c(=O)c1N2 [reduced FMN] the “K m ^RF (μM)” value (SpnFADS [11]; saturating ATP (252 μM), 0.8 mM MgCl2, 3 mM sodium dithionite (flavin reduced)) was 9.8 ± 10% µM and the K d (SpnFADS [2]; [13]) was 0.8 ± 20% μM.
With Nc1ncnc2c1ncn2[C@@H]1O[C@H](COP(=O)(O)OP(=O)(O)OP(=O)(O)O)[C@@H](O)[C@H]1O [ATP] the “K m ^ATP (μM)” value (SpnFADS [11]; FMN 27.7 µM for kcat, 0.8 mM MgCl2, 3 mM sodium dithionite) was 31.6 ± 10% µM and the “K d (μM)” value (SpnFADS [2]; 0.8 mM MgCl2, single site) was 9.4 ± 20% μM.
With Cc1cc2nc3c(=O)[nH]c(=O)nc-3n(C[C@H](O)[C@H](O)[C@H](O)CO)c2cc1C [RF] the “K m ^RF (μM)” value (SpnFADS [12]) was 0.9 ± 10% μM.
